According to the supplement of paper PMC9112550, “Optimization of the antimicrobial peptide Bac7 by deep mutational scanning” (BMC Biology, 2022):

The sequences below were run on Escherichia coli TOP10 (assay: shrunken log2 fold change of peptide-encoding DNA abundance (4.5 h post-induction vs induction); higher = less antimicrobial activity (less host growth inhibition)). Conditions: time post-induction: 4.5 h; library: site-saturation at positions 5, 18, 19, 20.
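Note: peptides expressed intracellularly from a pBAD plasmid library in pooled LB shake-flask culture, induced with 0.3% L-arabinose, DNA abundance read by NGS, three biological replicates, DESeq2 with apeglm shrinkage.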

Sequence | shrunken log2 fold change
RRIRLRPPRLPRPRPRPSSCPRP | -0.277
RRIRDRPPRLPRPRPRPISMPRP | 0.0543
RRIRWRPPRLPRPRPRPKLDPRP | 0.206
RRIRIRPPRLPRPRPRPFVYPRP | -0.625
RRIRKRPPRLPRPRPRPEQSPRP | 0.94
RRIRHRPPRLPRPRPRPYKPPRP | -0.466
RRIRTRPPRLPRPRPRPLQKPRP | -0.134
RRIRDRPPRLPRPRPRPLCMPRP | 0.43
RRIRDRPPRLPRPRPRPALWPRP | 1.05
RRIRHRPPRLPRPRPRPAFAPRP | 0.278
RRIRQRPPRLPRPRPRPTVDPRP | 0.349
RRIRMRPPRLPRPRPRPRKMPRP | 0.356
RRIRQRPPRLPRPRPRPREGPRP | 0.151
RRIRLRPPRLPRPRPRPDIWPRP | -0.137
RRIRIRPPRLPRPRPRPWVRPRP | 0.0146
RRIRIRPPRLPRPRPRPSNQPRP | -1.08
RRIRHRPPRLPRPRPRPAKEPRP | 0.0203
RRIRRRPPRLPRPRPRPCFYPRP | -0.187
RRIRDRPPRLPRPRPRPSIWPRP | 0.262
RRIRGRPPRLPRPRPRPFMMPRP | -0.467
RRIRYRPPRLPRPRPRPNCKPRP | -0.504
RRIRFRPPRLPRPRPRPHPSPRP | -0.107
RRIRIRPPRLPRPRPRPLCKPRP | -0.336
RRIRHRPPRLPRPRPRPKPYPRP | -0.277
RRIRDRPPRLPRPRPRPSNMPRP | -0.0872

Sequence | shrunken log2 fold change
RRIRGRPPRLPRPRPRPEIAPRP | 1.86
RRIRTRPPRLPRPRPRPRRHPRP | 0.0424
RRIRVRPPRLPRPRPRPVQQPRP | -0.246
RRIRCRPPRLPRPRPRPDCKPRP | -0.392
RRIRERPPRLPRPRPRPPQEPRP | 0.192
RRIRQRPPRLPRPRPRPAGMPRP | -0.148
RRIRARPPRLPRPRPRPKNCPRP | -0.245
RRIRTRPPRLPRPRPRPWVMPRP | -0.125
RRIRSRPPRLPRPRPRPSVRPRP | -0.0911
RRIRIRPPRLPRPRPRPKPCPRP | -0.0965
RRIRTRPPRLPRPRPRPCHFPRP | -0.387
RRIRRRPPRLPRPRPRPKMFPRP | -0.131
RRIRARPPRLPRPRPRPNNKPRP | -0.29
RRIRHRPPRLPRPRPRPWDFPRP | -0.0612
RRIRIRPPRLPRPRPRPGWHPRP | -0.0557
RRIRKRPPRLPRPRPRPEDNPRP | 0.749
RRIRPRPPRLPRPRPRPTWAPRP | 0.381
RRIRVRPPRLPRPRPRPHLKPRP | -0.284
RRIRERPPRLPRPRPRPPADPRP | 0.152
RRIRLRPPRLPRPRPRPLIPPRP | -0.41
RRIRERPPRLPRPRPRPKDHPRP | -0.323
RRIRWRPPRLPRPRPRPWQSPRP | 0.0143
RRIRLRPPRLPRPRPRPGDHPRP | -0.202
RRIRWRPPRLPRPRPRPICLPRP | 0.0313
RRIRQRPPRLPRPRPRPNTPPRP | -0.0687

Sequence | shrunken log2 fold change
RRIRHRPPRLPRPRPRPISNPRP | -0.779
RRIRDRPPRLPRPRPRPCLWPRP | 0.218
RRIRIRPPRLPRPRPRPKLIPRP | -0.233
RRIRTRPPRLPRPRPRPCIRPRP | -0.0289
RRIRFRPPRLPRPRPRPPQDPRP | 0.303
RRIRTRPPRLPRPRPRPMYLPRP | -0.518
RRIRVRPPRLPRPRPRPWGWPRP | 0.331
RRIRYRPPRLPRPRPRPRIHPRP | -0.287
RRIRLRPPRLPRPRPRPDIYPRP | -0.458
RRIRARPPRLPRPRPRPECLPRP | 0.909
RRIRNRPPRLPRPRPRPNLFPRP | -0.225
RRIRTRPPRLPRPRPRPKWNPRP | 0.0454
RRIRWRPPRLPRPRPRPDTVPRP | -0.0246
RRIRCRPPRLPRPRPRPCDIPRP | -0.0278
RRIRLRPPRLPRPRPRPAMSPRP | 0.019
RRIRSRPPRLPRPRPRPCLDPRP | -0.224
RRIRLRPPRLPRPRPRPPSNPRP | 0.00215
RRIRGRPPRLPRPRPRPRAAPRP | 1.53
RRIRRRPPRLPRPRPRPRSGPRP | 0.751
RRIRIRPPRLPRPRPRPRFSPRP | -0.231
RRIRMRPPRLPRPRPRPTDHPRP | 0.309
RRIRLRPPRLPRPRPRPWPIPRP | 0.0461
RRIRARPPRLPRPRPRPNSQPRP | 0.0062
RRIRVRPPRLPRPRPRPDWRPRP | 0.141
RRIRMRPPRLPRPRPRPVVHPRP | 0.0142

Sequence | shrunken log2 fold change
RRIRTRPPRLPRPRPRPRMQPRP | 0.0874
RRIRFRPPRLPRPRPRPVEMPRP | -0.327
RRIRQRPPRLPRPRPRPLFMPRP | -1.12
RRIRFRPPRLPRPRPRPGNCPRP | 0.0888
RRIRNRPPRLPRPRPRPADMPRP | -0.00154
RRIRWRPPRLPRPRPRPDLMPRP | 0.325
RRIRPRPPRLPRPRPRPEIVPRP | 0.0303
RRIRFRPPRLPRPRPRPDEVPRP | -0.00705
RRIRQRPPRLPRPRPRPDELPRP | -0.0583
RRIRKRPPRLPRPRPRPECVPRP | 1.69
RRIRKRPPRLPRPRPRPSDHPRP | -0.239
RRIRKRPPRLPRPRPRPYRVPRP | -0.0373
RRIRFRPPRLPRPRPRPRAYPRP | -0.23
RRIRKRPPRLPRPRPRPVHIPRP | -0.021
RRIRKRPPRLPRPRPRPFMFPRP | -0.0278
RRIRLRPPRLPRPRPRPIFVPRP | -0.0836
RRIRGRPPRLPRPRPRPHFSPRP | -0.115
RRIRCRPPRLPRPRPRPLWSPRP | -0.233
RRIRGRPPRLPRPRPRPSRTPRP | 0.536
RRIRRRPPRLPRPRPRPMYPPRP | -0.197
RRIRERPPRLPRPRPRPCISPRP | -0.218
RRIRGRPPRLPRPRPRPIFDPRP | 0.378
RRIRDRPPRLPRPRPRPRRPPRP | 0.652
RRIRTRPPRLPRPRPRPWMCPRP | 0.0404
RRIRLRPPRLPRPRPRPWVWPRP | -0.199

Sequence | shrunken log2 fold change
RRIRIRPPRLPRPRPRPWWEPRP | -0.109
RRIRLRPPRLPRPRPRPKMIPRP | -0.378
RRIRIRPPRLPRPRPRPWLAPRP | -0.12
RRIRWRPPRLPRPRPRPDASPRP | 0.364
RRIRGRPPRLPRPRPRPFYVPRP | 0.0462
RRIRCRPPRLPRPRPRPQLHPRP | -0.213
RRIRLRPPRLPRPRPRPWPFPRP | -0.0764
RRIRWRPPRLPRPRPRPFMEPRP | -0.239
RRIRYRPPRLPRPRPRPCINPRP | -0.00114
RRIRARPPRLPRPRPRPYTNPRP | -1.06
RRIRPRPPRLPRPRPRPIHKPRP | -0.561
RRIRCRPPRLPRPRPRPKFFPRP | 0.0952
RRIRGRPPRLPRPRPRPRRAPRP | 0.963
RRIRFRPPRLPRPRPRPLGYPRP | 0.0222
RRIRIRPPRLPRPRPRPWVQPRP | -0.0105
RRIRTRPPRLPRPRPRPHWAPRP | 0.0228
RRIRIRPPRLPRPRPRPQPLPRP | -0.371
RRIRFRPPRLPRPRPRPSTQPRP | -0.503
RRIRSRPPRLPRPRPRPALIPRP | 0.0414
RRIRSRPPRLPRPRPRPCFQPRP | -0.0966
RRIRDRPPRLPRPRPRPWSRPRP | -0.612
RRIRWRPPRLPRPRPRPCAEPRP | 0.618
RRIRCRPPRLPRPRPRPHRCPRP | -0.128
RRIRHRPPRLPRPRPRPWARPRP | -0.00568
RRIRDRPPRLPRPRPRPAEGPRP | 0.015

Sequence | shrunken log2 fold change
RRIRQRPPRLPRPRPRPTCHPRP | -0.552
RRIRGRPPRLPRPRPRPCMRPRP | 0.767
RRIRQRPPRLPRPRPRPFCYPRP | -0.264
RRIRDRPPRLPRPRPRPGMAPRP | 0.22
RRIRQRPPRLPRPRPRPAYDPRP | -0.0146
RRIRMRPPRLPRPRPRPIITPRP | -0.512
RRIRLRPPRLPRPRPRPLFEPRP | 1.33
RRIRWRPPRLPRPRPRPIIGPRP | 0.0626
RRIRHRPPRLPRPRPRPKWYPRP | -0.462
RRIRPRPPRLPRPRPRPYVRPRP | -0.61
RRIRTRPPRLPRPRPRPPYEPRP | 0.0319
RRIRSRPPRLPRPRPRPKMKPRP | 0.912
RRIRYRPPRLPRPRPRPDQRPRP | -0.24
RRIRRRPPRLPRPRPRPSEYPRP | -0.192
RRIRVRPPRLPRPRPRPSAWPRP | 0.804
RRIRMRPPRLPRPRPRPRSKPRP | 0.907
RRIRNRPPRLPRPRPRPRMMPRP | 0.0809
RRIRRRPPRLPRPRPRPWDRPRP | 0.26
RRIRKRPPRLPRPRPRPRYGPRP | -0.238
RRIRLRPPRLPRPRPRPLLCPRP | -0.0707
RRIRMRPPRLPRPRPRPQMKPRP | 0.518
RRIRFRPPRLPRPRPRPWWFPRP | -0.395
RRIRGRPPRLPRPRPRPVMRPRP | 0.749
RRIRSRPPRLPRPRPRPNEPPRP | -0.0883
RRIRHRPPRLPRPRPRPKSWPRP | 0.26
